{"source": "patent US20260092103A1", "about": "(ALBERT EINSTEIN COLLEGE OF MEDICINE, published 2026)", "binders": {"B1": {"name": "anti-GroEL2 antibody 103.11 (antibody, V domains shown)", "VH": "not shown", "VL": "QIVLTQSPAIMSASLGERVTMTCTASSSVSSSYLHWYRQKPGSSPKLWIYSASNLASGVPPRFSGSGSGTSYSLTISNMEAEDAATYYCHQYHRSPWTFGGGTKLEIKR"}}, "target": "Recombinant Mtb protein GroEL2 (Mycobacterium tuberculosis, UniProt P9WPE7 1-540)", "sequence (P9WPE7 whole entry)": "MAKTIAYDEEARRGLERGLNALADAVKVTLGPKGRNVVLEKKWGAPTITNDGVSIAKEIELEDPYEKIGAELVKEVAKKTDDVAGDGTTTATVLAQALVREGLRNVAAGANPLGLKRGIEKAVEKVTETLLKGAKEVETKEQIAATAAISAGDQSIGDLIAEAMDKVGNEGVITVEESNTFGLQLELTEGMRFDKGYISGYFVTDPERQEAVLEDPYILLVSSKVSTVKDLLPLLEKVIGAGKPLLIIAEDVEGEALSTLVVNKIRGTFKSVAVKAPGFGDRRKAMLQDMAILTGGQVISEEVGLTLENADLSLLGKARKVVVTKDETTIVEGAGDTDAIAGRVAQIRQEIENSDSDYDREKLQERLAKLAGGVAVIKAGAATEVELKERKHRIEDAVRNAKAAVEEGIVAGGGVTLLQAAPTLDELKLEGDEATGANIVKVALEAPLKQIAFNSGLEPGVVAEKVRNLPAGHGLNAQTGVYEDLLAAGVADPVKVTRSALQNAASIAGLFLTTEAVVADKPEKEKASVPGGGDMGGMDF", "data": [{"binder": "B1", "values": [{"measurement": "EC50 (read off the curve)", "result": "~0.02", "unit": "µg/mL"}]}]}
